Results published in US20210046160A1 (Synthorx, Inc., priority 2019, published 2021).

Key:
[1] = target: T1, IL-2 receptor βγ complex (IL-2Rβ and IL-2Rγ subunits) (Homo sapiens, UniProt P14784+P31785); assay: PathHunter IL-2 Cytokine Receptor assay, agonist mode, βγ cell line; type: cell-based; settings: for EC50: IL2Rα-negative U2OS cell line, 10 kD PEGylated conjugates, * = 30 kD; for βγ/αβγ ratio: ratio of the EC50 values
T1 construct: host or cells: recombinant human U2OS cell line (PathHunter)
T1 sequence (P14784 27-551): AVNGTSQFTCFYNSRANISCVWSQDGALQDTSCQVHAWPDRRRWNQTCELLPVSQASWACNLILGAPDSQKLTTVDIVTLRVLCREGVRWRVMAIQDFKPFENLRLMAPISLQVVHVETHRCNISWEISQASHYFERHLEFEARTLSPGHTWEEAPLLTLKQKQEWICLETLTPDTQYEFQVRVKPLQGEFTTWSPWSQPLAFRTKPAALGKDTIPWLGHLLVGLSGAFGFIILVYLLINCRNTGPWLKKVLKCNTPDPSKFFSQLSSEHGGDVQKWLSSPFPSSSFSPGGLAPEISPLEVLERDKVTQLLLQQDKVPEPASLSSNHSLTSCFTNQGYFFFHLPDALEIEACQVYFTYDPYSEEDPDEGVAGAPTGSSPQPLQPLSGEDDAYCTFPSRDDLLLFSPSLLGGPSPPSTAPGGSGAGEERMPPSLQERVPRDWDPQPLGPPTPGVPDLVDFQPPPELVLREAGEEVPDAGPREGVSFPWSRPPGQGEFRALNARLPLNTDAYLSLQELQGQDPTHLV
T1 sequence (P31785 23-369): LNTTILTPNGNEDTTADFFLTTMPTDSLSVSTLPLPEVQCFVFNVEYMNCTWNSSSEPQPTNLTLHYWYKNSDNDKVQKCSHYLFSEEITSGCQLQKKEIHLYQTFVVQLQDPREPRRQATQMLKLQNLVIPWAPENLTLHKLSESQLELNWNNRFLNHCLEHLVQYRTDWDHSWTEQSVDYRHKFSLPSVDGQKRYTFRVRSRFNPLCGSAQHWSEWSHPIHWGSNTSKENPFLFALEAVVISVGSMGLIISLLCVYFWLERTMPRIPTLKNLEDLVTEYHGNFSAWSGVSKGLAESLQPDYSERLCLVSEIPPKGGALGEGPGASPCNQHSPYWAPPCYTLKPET
Experimental: (§1) PathHunter cell lines were expanded from freezer stocks according to standard procedures. Cells were seeded in a total volume of 20 μL into white walled, 384-well microplates and incubated for the appropriate time prior to testing.
(§2) For agonist determination, cells were incubated with sample to induce response. Intermediate dilution of sample stocks was performed to generate 5× sample in assay buffer. About 5 μL of 5× sample was added to cells and incubated at 37° C. for 6 to 16 hours depending on the assay. Vehicle concentration was 1%.
(§3) Assay signal was generated through a single addition of 12.5 or 15 μL (50% v/v) of PathHunter Detection reagent cocktail for agonist and antagonist assays respectively, followed by a one hour incubation at room temperature. For some assays, activity was detected using a high sensitivity detection reagent (PathHunter Flash Kit) to improve assay performance. In these assays, an equal volume of detection reagent (25 or 30 μL) was added to the wells, followed by a one hour incubation at room temperature. Microplates were read following signal generation with a PerkinElmer Envision™ instrument for chemiluminescent signal detection.
(§4) Compound activity was analyzed using CBIS data analysis suite (ChemInnovation, CA). For agonist mode assays, percentage activity was calculated using the following Formula:
(§5) % Activity=100%×(mean RLU of test sample−mean RLU of vehicle control)/(mean MAX RLU control ligand−mean RLU of vehicle control).
(§6) A second cell line has been further engineered to express the IL-2Rα subunit. […] The assay was run in agonist mode to determine the EC50 of each test article, and comparison of dose-response curve profiles between IL2Rα positive and negative cell types allows determination of the contribution of IL2Rα to the observed activity.

[2] = target: T2, IL-2 receptor αβγ complex (Homo sapiens, UniProt P01589+P14784+P31785); assay: PathHunter IL-2 Cytokine Receptor assay, agonist mode, cell line further expressing IL-2Rα; type: cell-based; settings: IL2Rα-positive U2OS cell line; 10 kD PEGylated conjugates, * = 30 kD
T2 construct: host or cells: recombinant human U2OS cell line (PathHunter), further engineered to express IL-2Rα
T2 sequence (P01589 22-272): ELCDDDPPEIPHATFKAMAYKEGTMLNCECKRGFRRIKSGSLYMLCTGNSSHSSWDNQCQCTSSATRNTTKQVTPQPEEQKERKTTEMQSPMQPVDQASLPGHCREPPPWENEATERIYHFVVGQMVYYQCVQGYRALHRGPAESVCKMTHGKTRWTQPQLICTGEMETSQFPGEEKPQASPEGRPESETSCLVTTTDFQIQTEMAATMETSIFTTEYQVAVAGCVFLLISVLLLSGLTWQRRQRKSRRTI
T2 sequence (P14784 27-551): T1 sequence (P14784 27-551)
T2 sequence (P31785 23-369): T1 sequence (P31785 23-369)
Experimental: as §1, §2, §3, §4, §5, §6

[3] = PK study E3826-U1704 in naïve C57BL/6 mice (human IL-2 ELISA of plasma); type: in vivo; settings: for t½: 0.3 mg/kg
Experimental: (§7) Terminal blood samples were collected via cardiac puncture at the points indicated. […] Plasma and blood cells (in both studies) and tumors in study E3826-U1803 were collected for PK and PD analyses.
Bioanalysis of plasma samples was performed using a qualified human IL-2 ELISA assay (Abcam, Cambridge, UK). Concentrations of Aldesleukin, E62_30kD and P65_30kD and the internal standard in samples derived from plasma were determined using an ELISA assay. […] The PK data were imported into Phoenix WinNonlin v6.4 (Certara/Pharsight, Princeton, N.J.) for analysis. The group mean plasma concentration versus time data were analyzed with noncompartmental methods using an IV bolus administration model.

[4] = test system: pSTAT5 and proliferation in CD8+ T, NK and Treg cells; assay: Pharmacodynamics in peripheral blood compartment (pSTAT5, Ki-67, cell counts), Example 5; type: in vivo, C57BL/6 mice; settings: mice
Excerpt: as §7
STAT5 phosphorylation and induction of cell proliferation (the early molecular marker Ki-67 and cell counts) was used as pharmacodynamics readouts to assess the pharmacological profile of P65_30kD relative to its pharmacokinetics.

[5] = MTD / toxicology study E3826-U1802 in naïve Balb/c mice (hematology, histopathology, organ weight, cytokines); type: in vivo; settings: Balb/c mice
Experimental: A dose ranging study of P65_30kD was conducted in naïve female Balb/c mice at Crown Biosciences, Inc. (San Diego, Calif.). […] Blood samples were drawn via sub mandibular vein at 8 time points (0.25, 1, 4, 12, 24, 34, 48 & 72 h).
A major of toxicity associated with high-dose aldesleukin is vascular leak syndrome and associated Cytokine Release Syndrome (CRS). […] The analysis performed was hematology, histopathology, organ weight, and cytokine analyses.

[6] = C57BL/6 female mice, single IV bolus 0.3 mg/kg, E62_5 kD from a separate study

Substance | EC50 [1] | βγ/αβγ ratio [1] | EC50 [2] | other results
E62: Table 2: 10 kD PEGylated IL-2 conjugate at site E62 [Compound E62] | 3 nM | 2 | 1.5 nM | 
E68: Table 2: 10 kD PEGylated IL-2 conjugate at site E68 [Compound E68] | 7.7 nM | 86 | 0.0893 nM | 
F42: Table 2: 10 kD PEGylated IL-2 conjugate at site F42 [Compound F42] | 6.09 nM | 12 | 0.515 nM | 
K35: Table 2: 10 kD PEGylated IL-2 conjugate at site K35 [Compound K35] | 6.75 nM | 45 | 0.15 nM | 
K43: Table 2: 10 kD PEGylated IL-2 conjugate at site K43 [Compound K43] | 9.84 nM | 75 | 0.131 nM | 
R38: Table 2: 10 kD PEGylated IL-2 conjugate at site R38 [Compound R38] | 4.16 nM | 25 | 0.165 nM | 
T41: Table 2: 10 kD PEGylated IL-2 conjugate at site T41 [Compound T41] | 6.37 nM | 130 | 0.0489 nM | 
V69: Table 2: 30 kD PEGylated IL-2 conjugate at site V69 [Compound V69] | 9.99 nM | 121 | 0.083 nM | 
Y45: Table 2: 30 kD PEGylated IL-2 conjugate at site Y45 [Compound Y45] | 9.06 nM | 83 | 0.11 nM | 
aldesleukin [reference compound] |  |  |  | AUC0-t [3, 6]: 229 ng·h/mL; AUCINF [3, 6]: 230 ng·h/mL; CL [3, 6]: 1300 mL/h/kg; Cmax [3, 6]: 884 ng/mL; Tmax [3, 6]: 1.8 min; Vss (distribution volume) [3, 6]: 390 mL/kg; t½ [3, 6]: 34.4 min; t½ ([3]; C57BL/6 female mice, single IV bolus 0.3 mg/kg, E62_5 kD from a separate study, listed as aldesleukin): 34.2 min; mean plasma concentrations measurable out to (post-dose) ([3]; single IV bolus, 120 h = last measured time point): 4 h; pSTAT5 induction returned to baseline after [4]: 2 h; systemic levels of IFNγ [5]: transient elevation; plasma IL-5 levels ([5]; dose range 0.01-5.0 mg/kg): elevated plasma IL-5 levels starting at 1 mg/kg to 5 mg/kg; hematology, histopathology or body weights relative to vehicle control ([5]; P65_30kD single IV 0.01-5.0 mg/kg, aldesleukin IV BID × 3): Abnormalities were not observed
